IC50 data for 25 molecules are collected here from patent US20220162261A1 (published 2022).

The test concerns the target T1, human α4β7 integrin on cells (human, UniProt P13612 34-1032; P26010 20-798).
T1 construct: whole, on cells; also called α4β7 cell (Hu); RPMI8866 cells
As to the kind of experiment: RPMI8866 cell adhesion to MAdCAM-1.

As usually defined, the IC50 is the midpoint of a concentration-inhibition curve. Higher therefore signals lower potency.

Bridge positions count the residues as written; N and C are the ends. Square brackets hold non-standard residues; d marks the D form. Ends that are not written are not given here. Phe(4-COOH) = N[C@@H](Cc1ccc(C(=O)O)cc1)C(=O)O; NMeR = CN[C@@H](CCCNC(=N)N)C(=O)O; NMeE = CN[C@@H](CCC(=O)O)C(=O)O; DIG = diglycolic acid (linker); Pen = CC(C)(S)[C@H](N)C(=O)O Some results are limits rather than exact numbers.

B1: SEQ ID NO: 1 (peptide)
peptide: Ac-[Pen][NMeR]SDTL[Pen]W[βGlu][dK]-NH2
modifications: disulfide 1-7; not fully specified (residue 10); printed as (Ac Pen N-Me-R S D T L Pen W Beta-E k NH2)2 DIG; also: homodimer: two subunits joined by DIG linker
For B1, the IC50 was more than 50 nM.

B2: SEQ ID NO: 104 (peptide)
peptide: Ac-[Pen][NMeR]SDTL[Pen]W[dH][dK]-NH2
modifications: disulfide 1-7; not fully specified (residue 10); printed as (Ac Pen N-Me-R S D T L Pen W h k NH2)2 DIG, disulfide Pen-Pen; also: homodimer: two subunits joined by DIG linker
Molecule B2 showed an IC50 of more than 100 nM.

B3: SEQ ID NO: 91 (peptide)
peptide: Ac-[Pen][NMeR]SDTL[Pen]W[dF][dK]-NH2
modifications: disulfide 1-7; not fully specified (residue 10); printed as (Ac Pen N-Me-R S D T L Pen W f k NH2)2 DIG, disulfide Pen-Pen; also: homodimer via DIG linker
With B3, the half-inhibitory concentration (IC50) was more than 100 nM.

B4: SEQ ID NO: 71 (peptide)
peptide: Ac-[Pen][NMeR]SDTL[Pen]W[dE][dK]-NH2
modifications: disulfide 1-7; not fully specified (residue 10); printed as (Ac Pen N-Me-R S D T L Pen W e k NH2)2 IDA Biotine, disulfide Pen-Pen; also: homodimer via IDA linker bearing biotin
B4: the IC50 is more than 25 nM.

B5: SEQ ID NO: 85 (peptide)
peptide: Ac-[Pen][NMeR]SDTL[Pen]WF[dK]-NH2
modifications: disulfide 1-7; not fully specified (residue 10); printed as (Ac Pen N-Me-R S D T L Pen W F k NH2)2 DIG, disulfide Pen-Pen; also: homodimer: two subunits linked by DIG via D-Lys10 side chain
As for B5, the IC50 is not above 10 nM.

B6: SEQ ID NO: 94 (peptide)
peptide: Ac-[Pen][NMeR]SDTL[Pen]WP[dK](DIG)-NH2
modifications: disulfide 1-7; also: homodimer (…)2 DIG: the two subunits are joined through the K10 NZ by the DIG linker
B6 had a half-maximal inhibitory concentration (IC50) of more than 100 nM.

B7: SEQ ID NO: 72 (peptide)
peptide: Ac-[Pen][NMeR]SDTL[Pen]W[dE][dK]-NH2
modifications: disulfide 1-7; not fully specified (residue 10); printed as (Ac Pen N-Me-R S D T L Pen W e k NH2)2 IDA PEG4 Biotine, disulfide Pen-Pen; also: homodimer: two subunits linked by IDA via D-Lys10 side chain, PEG4-Biotine on the linker
Consider B7, for which the IC50 was more than 25 nM.

B8: SEQ ID NO: 87 (peptide)
peptide: Ac-[Pen][NMeR]SDTL[Pen]WD[dK]-NH2
modifications: disulfide 1-7; not fully specified (residue 10); printed as (Ac Pen N-Me-R S D T L Pen W D k NH2)2 DIG, disulfide Pen-Pen; also: homodimer: two subunits linked by DIG via D-Lys10 side chain
Molecule B8 displayed an IC50 of more than 25 nM.

B9: SEQ ID NO: 105 (peptide)
peptide: Ac-[Pen][NMeR]SDTL[Pen]W[Phe(4-COOH)][dK]-NH2
modifications: disulfide 1-7; not fully specified (residue 10); printed as (Ac Pen N-Me-R S D T L Pen W F(4-COOH) k NH2)2 DIG, disulfide Pen-Pen; also: homodimer: two subunits joined by DIG linker
Molecule B9 returned a 50% inhibitory concentration (IC50) of more than 50 nM.

Molecule Ac-[Pen][NMeR]SDTL[Pen]W[dP]K-NH2 (disulfide 1-7; also: homodimer, two subunits linked by DIG at Lys10) [SEQ ID NO: 96] displayed an IC50 of more than 50 nM.

B10: SEQ ID NO: 31 (peptide)
peptide: Ac-[Pen][NMeR]SDTL[Pen]W[NMeE][dK]-NH2
modifications: disulfide 1-7; not fully specified (residue 10); printed as (Ac Pen N-Me-R S D T L Pen W N-Me-E k NH2)2 DIG, disulfide Pen-Pen; also: dimer, two subunits joined by DIG linker
Consider B10, for which the IC50 is more than 50 nM.

B11: SEQ ID NO: 83 (peptide)
peptide: Ac-[Pen][NMeR]SDTL[Pen]WN[dK]-NH2
modifications: disulfide 1-7; not fully specified (residue 10); printed as (Ac Pen N-Me-R S D T L Pen W N k NH2)2 DIG, disulfide Pen-Pen; also: homodimer: two subunits linked by DIG via D-Lys10 side chain
B11 registered an IC50 of more than 50 nM.

B12: SEQ ID NO: 110 (peptide)
peptide: Ac-[Pen][NMeR]SDTL[Pen]W[dW][dK]-NH2
modifications: disulfide 1-7; not fully specified (residue 10); printed as (Ac Pen N-Me-R S D T L Pen W w k NH2)2 DIG, disulfide Pen-Pen; also: homodimer: two subunits joined by DIG linker
Regarding B12, the half-maximal inhibitory concentration (IC50) is more than 10 nM.

B13: SEQ ID NO: 95 (peptide)
peptide: Ac-[Pen][NMeR]SDTL[Pen]WPK(DIG)-NH2
modifications: disulfide 1-7; also: homodimer (…)2 DIG: the two subunits are joined through the K10 NZ by the DIG linker
B13: the IC50 is more than 100 nM.

B14: SEQ ID NO: 70 (peptide)
peptide: Ac-[Pen][NMeR]SDTL[Pen]W[dE][dK]-NH2
modifications: disulfide 1-7; not fully specified (residue 10); printed as (Ac Pen N-Me-R S D T L Pen W e k NH2)2 IDA, disulfide Pen-Pen; also: homodimer via IDA linker
On to B14, for which the IC50 was more than 25 nM.

B15: SEQ ID NO: 25 (peptide)
peptide: Ac-[Pen][NMeR]SDTL[Pen]HE[dK]-NH2
modifications: disulfide 1-7; not fully specified (residue 10); printed as (Ac Pen N-Me-R S D T L Pen H E k NH2)2 DIG, disulfide Pen-Pen; also: dimer, two subunits joined by DIG linker
Consider B15, for which the half-maximal inhibitory concentration (IC50) was more than 10 nM.

In turn, Ac-[Pen][NMeR]SDTL[Pen]W[dE][dK](Ac) (disulfide 1-7) [SEQ ID NO: 66] had an IC50 of more than 10000 nM.

B16: SEQ ID NO: 92 (peptide)
peptide: Ac-[Pen][NMeR]SDTL[Pen]W[dY][dK](DIG)-NH2
modifications: disulfide 1-7; also: homodimer (…)2 DIG: the two subunits are joined through the K10 NZ by the DIG linker
As to B16, the IC50 is more than 50 nM.

B17: SEQ ID NO: 124 (peptide)
peptide: Ac-[Pen][NMeR]SDTL[Pen]H[dE][dK]-NH2
modifications: disulfide 1-7; not fully specified (residue 10); printed as (Ac Pen N-Me-R S D T L Pen H e k NH2)2 DIG, disulfide Pen-Pen; also: homodimer: two subunits joined by DIG linker
Regarding B17, the IC50 was more than 100 nM.

B18: SEQ ID NO: 123 (peptide)
peptide: Ac-[Pen][NMeR]SDTL[Pen]Y[dE][dK]-NH2
modifications: disulfide 1-7; not fully specified (residue 10); printed as (Ac Pen N-Me-R S D T L Pen Y e k NH2)2 DIG, disulfide Pen-Pen; also: homodimer: two subunits joined by DIG linker
The molecule B18 gave an IC50 of more than 50 nM.

Take Ac-[Pen][NMeR]SDTL[Pen]WE[dK](Ac) (disulfide 1-7) [SEQ ID NO: 65]: the IC50 was more than 10000 nM.

B19: SEQ ID NO: 26 (peptide)
peptide: Ac-[Pen][NMeR]SDTL[Pen]HY[dK]-NH2
modifications: disulfide 1-7; not fully specified (residue 10); printed as (Ac Pen N-Me-R S D T L Pen H Y k NH2)2 DIG, disulfide Pen-Pen; also: dimer, two subunits joined by DIG linker
With B19, the IC50 is more than 100 nM.

B20: SEQ ID NO: 82 (peptide)
peptide: Ac-[Pen][NMeR]SDTL[Pen]WQ[dK]-NH2
modifications: disulfide 1-7; not fully specified (residue 10); printed as (Ac Pen N-Me-R S D T L Pen W Q k NH2)2 DIG, disulfide Pen-Pen; also: homodimer: two subunits linked by DIG via D-Lys10 side chain
Turning to B20, the 50% inhibitory concentration (IC50) is more than 50 nM.

B21: SEQ ID NO: 28 (peptide)
peptide: Ac-[Pen][NMeR]SDTL[Pen][dW]E[dK]-NH2
modifications: disulfide 1-7; not fully specified (residue 10); printed as (Ac Pen N-Me-R S D T L Pen w E k NH2)2 DIG, disulfide Pen-Pen; also: dimer, two subunits joined by DIG linker
B21 yielded an IC50 of more than 50 nM.

In turn, Ac-[dK]C[NMeR]SDTLCW[dK]-NH2 (disulfide 2-8 (inferred); also: dimer linked by DIG, attachment not given here) [SEQ ID NO: 4] had an IC50 of more than 10 nM.
